Target: prostate-specific membrane antigen (PSMA) (UniProt Q04609 1-750, limits assumed)
Test: cell-based or functional assay

Sequence of prostate-specific membrane antigen (PSMA) (Q04609 whole entry): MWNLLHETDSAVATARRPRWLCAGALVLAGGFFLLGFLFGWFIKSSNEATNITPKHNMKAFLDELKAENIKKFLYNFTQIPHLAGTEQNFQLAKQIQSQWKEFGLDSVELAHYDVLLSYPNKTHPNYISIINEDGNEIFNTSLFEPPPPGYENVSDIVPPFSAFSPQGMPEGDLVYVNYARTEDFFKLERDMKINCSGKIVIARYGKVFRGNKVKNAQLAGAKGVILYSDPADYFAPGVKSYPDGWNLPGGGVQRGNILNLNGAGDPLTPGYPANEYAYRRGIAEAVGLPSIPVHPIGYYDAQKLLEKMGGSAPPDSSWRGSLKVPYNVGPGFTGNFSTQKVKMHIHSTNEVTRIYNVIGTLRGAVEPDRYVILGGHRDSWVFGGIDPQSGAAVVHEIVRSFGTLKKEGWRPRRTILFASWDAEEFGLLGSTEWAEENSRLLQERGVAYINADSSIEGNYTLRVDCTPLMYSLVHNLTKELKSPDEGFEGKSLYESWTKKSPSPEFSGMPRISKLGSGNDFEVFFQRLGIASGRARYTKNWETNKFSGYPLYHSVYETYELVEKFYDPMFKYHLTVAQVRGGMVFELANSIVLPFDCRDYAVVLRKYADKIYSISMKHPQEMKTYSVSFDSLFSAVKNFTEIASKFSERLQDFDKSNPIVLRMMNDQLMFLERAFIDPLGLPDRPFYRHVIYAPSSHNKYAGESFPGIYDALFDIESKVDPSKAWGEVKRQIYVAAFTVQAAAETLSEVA

long-term T cell proliferation (expansion over 31 days) of 19z1+P28BB T cells on AAPCs expressing CD19 and PSMA: 58 fold
B1: P28BB (anti-PSMA chimeric costimulatory receptor) (other)
chain: EVQLQQSGPELVKPGTSVRISCKTSGYTFTEYTIHWVKQSHGKSLEWIGNINPNNGGTTYNQKFEDKATLTVDKSSSTAYMELRSLTSEDSAVYYCAAGWNFDYWGQGTTVTVSSGGGGSGGGGSGGGGSDIVMTQSHKFMSTSVGDRVSIICKASQDVGTAVDWYQQKPGQSPKLLIYWASTRHTGVPDRFTGSGSGTDFTLTITNVQSEDLADYFCQQYNSYPLTFGAGTMLDLKRAAAIEVMYPPPYLDNEKSNGTIIHVKGKHLCPSPLFPGPSKPFWVLVVVGGVLACYSLLVTVAFIIFWVRSKRSRLLHSDYMNMTPRRPGPTRKHYQPYAPPRDFAAYRSRFSVVKRGRKKLLYIFKQPFMRPVQTTQEEDGCSCRFPEEEEGGCE

Source: patent EP3597215A1 (dated 2020)
